The text below walks through data of patent publication US20200407445A1 (ITEOS THERAPEUTICS, published 2020).

A word on the EC50: it is the concentration at which the effect is half-maximal. A higher EC50 goes with lower potency in that assay. A word on the IC50: it is the midpoint of a concentration-inhibition curve. A higher IC50 goes with weaker potency. A word on the Kd: it is a measure of binding affinity in units of concentration. In general, koff refers to the rate constant with which the complex falls apart.

For assay [1], the target named is T1, human TIGIT expressed on cells (human, UniProt Q495A1 22-244).
T1 sequence (looked up): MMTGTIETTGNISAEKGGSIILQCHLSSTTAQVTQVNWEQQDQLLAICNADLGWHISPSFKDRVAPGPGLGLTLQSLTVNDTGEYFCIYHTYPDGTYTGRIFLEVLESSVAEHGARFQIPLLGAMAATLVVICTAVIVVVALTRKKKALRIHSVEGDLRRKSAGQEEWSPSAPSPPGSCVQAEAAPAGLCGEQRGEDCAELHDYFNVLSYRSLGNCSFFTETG
Briefly: cell-based or functional assay.

In assay [2] the target is T1, human TIGIT expressed on cells. The assay is described as follows: cell-based or functional assay. The source holds these as a separate data set.
Assay [3] has the same target. Briefly: flow cytometry on Jurkat-hTIGIT. The protocol: (§1) Antibodies were incubated with the cells for 20 min at 4° C. in FACS buffer. […] Fluorescence intensity was analysed using LSR BD Fortessa and cell binding was recorded as the median fluorescence intensity of PE in cells expressing TIGIT at their surface.
(§2) The half-maximal concentration of binding (EC50) to Jurkat-hTIGIT was calculated using a four-variable curve-fit equation in Prism.

Assay [4] shares this target. The assay is described as follows: flow cytometry on Jurkat-hTIGIT. The protocol: as §1, §2
This is another data set of the same source. For orientation: In flow cytometry, cells or beads pass a laser one at a time.

Assay [5] has the same target. The assay is described as follows: flow cytometry, primary CD8+ T cells of healthy human PBMC, MFI. The method, then: Isolated human PBMCs from healthy volunteers were analysed for binding by antagonist anti-TIGIT antibodies. Cells were distributed at 1×10⁵ cells per well. Cells were incubated with anti-CD16 (Clone 3G8, BioLegend 302002), CD32 (Clone FLI8.26, BD Bioscience 557333) and CD64 (BD Bioscience 555525) at room temperature for 10 min, and the indicated anti-human TIGIT antibody clones were directly added at a final concentration of 8; 4; 2; 1; 0.5; 0.25; 0.125; 0.062; 0.031; 0.016; 8×10⁻³ and 4×10⁻³ nM in FACS buffer and incubated for 20 min at 4° C. […] Then, cells were washed and incubated with the following antibodies and LVD mix: anti-CD4-PercP-Cy5.5 (clone A161A1, BioLegend 357414); anti-CD8-BV510 (clone SK1, BD Bioscience 563919) and LVD efluor 660 (eBioscience 65-0864-18).
The EC50 values for binding to CD8+ human primary T cells were calculated using the MFI signal on living TIGIT+CD8+ T cells.

For assay [6] the target is unchanged. Briefly: flow cytometry, primary CD8+ T cells of cancer patients' PBMC, MFI. The protocol: Cells were distributed at 1×10^5 cells per well. […] Then, cells were washed and incubated with the following antibodies and life viability dye (LVD) mix: anti-CD4-PercP-Cy5.5 (clone A161A1, BioLegend 357414); anti-CD8-BV510 (clone SK1, BD Bioscience 563919) and LVD efluor 520 (eBioscience 65-0867-14). Cells were washed and fixed and surface staining was quantified using BD LSR Fortessa. Flow cytometry data was analysed using FlowJo V10.1. TIGIT MFI on gated LVD-TIGIT+CD8+ cells was used to calculate EC50 values.

The target is the same in assay [7]. The assay is described as follows: flow cytometry, competition with CD155-His (15 ug/ml) on Jurkat-hTIGIT.
Assay [8] has as its target T2, recombinant human TIGIT protein (construct not stated) (human, UniProt Q495A1 22-141, limits assumed).
T2 construct: also called hTIGIT (Creative Biomart); recombinant TIGIT protein
T2 sequence (looked up): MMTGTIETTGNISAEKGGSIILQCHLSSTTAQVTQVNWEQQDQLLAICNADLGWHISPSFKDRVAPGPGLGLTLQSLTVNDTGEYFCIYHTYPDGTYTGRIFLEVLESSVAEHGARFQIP
Briefly: Biacore T200, IgG captured by anti-human Fc, antigen in solution, 1:1 kinetic model. The method, then: (§3) Biosensor analysis was conducted at 25° C. in a HBS-EP buffer system (10 mM HEPES pH 7.3, 150 mM NaCl, 3 mM EDTA, 0.05% Tween20) using Biacore T200 technology, CMS sensor chip (run at Novalix, France). The sample hotel was maintained at 8° C. Goat anti-human IgG capture antibody (Fcγ fragment specific, Jackson ImmunoResearch Laboratories) was immobilized (10000 RU) to both flow cells of the sensor chip using standard amine coupling chemistry. This surface type provided a format for reproducibly capturing fresh analysis antibody after each regeneration step. Flow cell 2 was used to analyse captured antibody while flow cell 1 was used as a reference flow cell. […] Two blank (buffer) injections also were run and used to assess and subtract system artefacts. The association (300 s) and dissociation (600 s) phases for all antigen concentrations were performed at a flow rate of 30 uL/min. The surface was regenerated with three sequential injections (15 s, 15 s and 60 s) of 10 mM glycine-HCl, pH 1.5. The obtained sensorgrams were fitted globally to a 1:1 model (assuming the same kinetic values for all applied concentrations).

Assay [9] has as its target T3, mouse TIGIT expressed on cells (mouse, UniProt P86176 29-249).
T3 sequence (looked up): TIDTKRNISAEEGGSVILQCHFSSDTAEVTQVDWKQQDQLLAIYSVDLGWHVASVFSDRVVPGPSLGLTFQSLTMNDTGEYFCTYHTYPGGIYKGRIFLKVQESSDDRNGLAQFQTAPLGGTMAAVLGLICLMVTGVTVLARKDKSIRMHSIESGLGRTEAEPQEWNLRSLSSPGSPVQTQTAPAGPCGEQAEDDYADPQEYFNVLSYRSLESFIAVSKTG
The assay is described as follows: cell-based or functional assay.

The target in assay [10] is T1, human TIGIT expressed on cells. The assay is described as follows: cell-based or functional assay. The source holds these as a separate data set.
A further assay concerns the target T4, Human TIGIT-Fc (human, UniProt Q495A1 22-141).
T4 construct: bought (Creative Biomart); also called TIGIT-Fc antigen; TIGIT-Fc fusion antigen; not shown: Fc part
T4 sequence (looked up): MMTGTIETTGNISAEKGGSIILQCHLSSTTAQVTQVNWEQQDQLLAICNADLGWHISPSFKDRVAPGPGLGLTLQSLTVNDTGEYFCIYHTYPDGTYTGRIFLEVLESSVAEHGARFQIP
Briefly: ForteBio BLI, IgG KD, avid.

The target of assay [11] is T1, human TIGIT expressed on cells. The assay is described as follows: flow cytometry, 100 nM Ab, Jurkat-hTIGIT vs untransfected. The method, then: (§4) Antibodies were incubated with the cells for 20 min at 4° C. in FACS buffer. […] Geometric mean fluorecence intensity was analysed using LSR BD Fortessa. Cell binding was recorded as the median florescence intensity of PE on the transfected line compared to the un-transfected line for each antibody (Table 3).

Assay [12] has as its target T3, mouse TIGIT expressed on cells. Briefly: flow cytometry, 100 nM Ab, Jurkat-mTIGIT vs untransfected. The protocol: as §4
The target is the same in assay [13]. Briefly: flow cytometry, competition with mouse CD155-His-Fc (4 ug/ml) on Jurkat-mTIGIT, FIG. 15A. The method, then:
Cells were washed once, and stained with PE-anti-His antibody (Biolegend, 362603) during 30 min at 4° C.

Assay [14] concerns the target T2, recombinant human TIGIT protein …. Briefly: Biacore T200, IgG captured by anti-human Fc, antigen in solution, steady state model. The method, then:
as §3, with “The obtained sensorgrams were fitted globally to a 1:1 model (assuming the same kinetic values for all applied concentrations).” left out
On the technique in general: In SPR one partner is held on a chip, and binding of the other changes the refractive index at the surface.

B1: 4.1D3.Q1E (comparative anti-TIGIT antibody, human IgG1) (antibody, V domains shown)
VH: EVQLQQSGPGLVKPSQTLSLTCAISGDSVSSNSAAWNWIRQSPSRGLEWLGKTYYRFKWYSDYAVSVKGRITINPDTSKNQFSLQLNSVTPEDTAVFYCTRESTTYDLLAGPFDYWGQGTLVTVSS
VL: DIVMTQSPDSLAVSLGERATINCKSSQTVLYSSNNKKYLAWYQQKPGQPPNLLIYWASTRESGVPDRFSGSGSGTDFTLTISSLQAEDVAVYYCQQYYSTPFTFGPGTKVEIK
notes: from WO2017/053748; made in HEK cells as human IgG1
On to B1, for which, in [1], the “EC50 (nM), luciferase, Jurkat-hTIGIT” value came out at 10.3 nM; the “Fold change of EC50 over EC50 of best clone (31282_up)” value turned out to be 3.1 fold; the “Induction over Isotype control (fold change), luciferase, Jurkat-hTIGIT + CD155 aAPC/CHO-K1” value stood at 5.8 fold. In assay [2], the “EC50 (nM), IFNg, human primary CD8+ T cells” value turned out to be 1.43 nM; the “Fold change of EC50 over EC50 of best clone (31282_wu)” value (“Fold change of EC50 … (31282_wu)” below) is 10.8 fold; the “Induction over isotype control (fold change), IFNg, human primary CD8+ T cells + CD155 aAPC/CHO-K1” value was 2.9 fold. In addition, in assay [3], the EC50 worked out at 0.267 nM. In assay [4], the response was half-maximal at 0.27 nM (EC50) and the “Fold change of EC50 … (31282_wu)” value was found to be 2.5 fold. Also, in assay [5], the midpoint of the response, the EC50, lay at 1.88 nM and the “Fold change of EC50 … (31282_wu)” value stood at 9.7 fold. Also, in assay [6], a half-maximal response (EC50) required 1.15 nM and the “Fold change of EC50 over EC50 of best clone (31282)” value is 9.5 fold. In assay [7], the “Fold change of IC50 over IC50 of best clone (31282_up)” value was found to be 1.9 fold and the IC50 stood at 0.07 nM. In addition, in [8], the Kd is 0.044 nM and the off-rate (koff) was determined as 4.72e-05 s⁻¹.

B2: anti-TIGIT antibody clone 26493 (IgG) (antibody, V domains shown)
VH: EVQLVESGGGLVQPGRSLRLSCAASGFTFGDYAMHWVRQAPGKGLEWVSGITWNSGSIGYADSVKGRFTISRDNAKNSLYLQMNSLRAEDTALYYCAKPVPKSRGLDVWGQGTMVTVSS
VL: DIQLTQSPSSVSASVGDRVTITCRASQGISSWLAWYQQKPGKAPKLLIYGASSLQSGVPSRFSGSGSGTDFTLTISSLQPEDFATYYCQQAFYLPWTFGGGTKVEIK
notes: parent clone; also called surrogate anti-TIGIT antagonistic antibody
For the molecule B2, the “IFNg production by mouse OT-I CD8+ T cells co-cultured with OVA-pulsed PanO2 cells (express CD155), 133 nM” value in assay [9] was around 2 fold. Also, the “Induction over Isotype control (fold change), luciferase, Jurkat-hTIGIT + CHO-TCR-CD155, 133 nM” value in [10] is 0.96 fold. Moreover, in the assay with Human TIGIT-Fc, the Kd was determined as 1.49 nM. Besides, the entries for the “FON (Fold Over Negative)” value in assay [11] and in [12] were 80 fold and 463 fold, respectively. Further, the IC50 in [13] worked out at 2.3 nM.

B3: 313M32 (comparative anti-TIGIT antibody, human IgG1) (antibody, V domains shown)
VH: QVQLQESGPGLVKPSETLSLTCAVSGYSITSDYAWNWIRQPPGKGLEWIGYISYSGSTSYNPSLRSRVTISRDTSKNQFFLKLSSVTAADTAVYYCARRQVGLGFAYWGQGTLVTVSS
VL: DIQMTQSPSSLSASVGDRVTITCKASQDVSTAVAWYQQKPGKAPKLLIYSASYRYTGVPSRFSGSGSGTDFTFTISSLQPEDIATYYCQQHYSTPWTFG
notes: from WO2016/191643; made in HEK cells as human IgG1; the VL as printed ends at ...TFG (FR4 not complete); also called 313M2
For B3, the EC50 in assay [3] was found to be 0.445 nM. Moreover, in assay [4], a half-maximal effect (EC50) was put at 0.44 nM and the “Fold change of EC50 … (31282_wu)” value was 4.2 fold. Moreover, in assay [5], a half-maximal response (EC50) required 1.45 nM and the “Fold change of EC50 … (31282_wu)” value turned out to be 7.5 fold. Also, in [6], the EC50 was 1 nM and the “Fold change of EC50 over EC50 of best clone (31282)” value came out at 8.3 fold. In addition, in assay [7], the “Fold change of IC50 over IC50 of best clone (31282_up)” value was 16.7 fold and the IC50 was determined as 0.65 nM. Moreover, the Kd in assay [14] amounted to 10.1 nM.
